This note sets out measurements from publication PMC12250083 (International Journal of Molecular Sciences, 2025).

Positions count from the first letter of the chain named.

Test [1] deals with T1, acetone carboxylase (XaAC) (Xanthobacter versatilis, UniProt Q8RM03+Q8RM04). The test can be described thus: differential scanning fluorimetry, SYPRO orange. Format: binding. Details: gene acxA; recombinant from E. coli, His-NTA then Q-sepharose; 360 kDa α2β2γ2 heterohexamer with Mn(II); ATP/AMP site in beta subunit, Mn(II) site in alpha subunit; with Acetone carboxylase gamma subunit. As to conditions: 10 mM AMP; 100 mM Tris, 100 mM KCl, pH 7.6; absolute Tm, not a shift. Background: Differential scanning fluorimetry follows unfolding on heating by fluorescence.
T1 sequence (Q8RM03 whole entry, one chain of several): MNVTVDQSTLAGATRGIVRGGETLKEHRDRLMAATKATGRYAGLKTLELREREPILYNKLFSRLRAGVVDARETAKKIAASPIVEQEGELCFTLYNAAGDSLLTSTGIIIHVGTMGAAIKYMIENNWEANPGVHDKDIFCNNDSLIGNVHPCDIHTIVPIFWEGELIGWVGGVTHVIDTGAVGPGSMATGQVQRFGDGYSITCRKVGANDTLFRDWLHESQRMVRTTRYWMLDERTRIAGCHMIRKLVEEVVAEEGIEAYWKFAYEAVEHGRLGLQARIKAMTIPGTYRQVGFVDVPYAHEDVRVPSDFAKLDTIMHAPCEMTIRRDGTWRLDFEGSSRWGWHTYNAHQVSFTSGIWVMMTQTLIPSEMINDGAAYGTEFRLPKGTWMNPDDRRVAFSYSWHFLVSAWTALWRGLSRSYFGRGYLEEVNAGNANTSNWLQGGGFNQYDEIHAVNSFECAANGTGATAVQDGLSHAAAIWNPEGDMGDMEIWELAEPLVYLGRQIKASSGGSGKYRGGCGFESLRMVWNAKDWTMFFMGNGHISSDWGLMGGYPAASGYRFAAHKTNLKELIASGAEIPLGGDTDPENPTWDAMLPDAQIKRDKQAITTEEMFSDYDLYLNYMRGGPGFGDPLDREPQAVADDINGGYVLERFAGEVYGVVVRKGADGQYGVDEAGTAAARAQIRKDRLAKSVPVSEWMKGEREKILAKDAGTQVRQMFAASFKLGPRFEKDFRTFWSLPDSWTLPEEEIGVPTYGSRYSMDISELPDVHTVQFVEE

The target of test [2] is T2, acetone carboxylase (XaAC) (Xanthobacter versatilis, UniProt Q8RM03+Q8RM04, Q8RM03:E89A).
T2 construct: gene acxA; recombinant from E. coli, His-NTA then Q-sepharose; 360 kDa α2β2γ2 heterohexamer with Mn(II); ATP/AMP site in beta subunit, Mn(II) site in alpha subunit; with Acetone carboxylase gamma subunit
T2 sequence (Q8RM03 whole entry E89A, one chain of several): as the sequence (Q8RM03 whole entry, one chain of several) above, with E89A counted along it
The test is described as follows: differential scanning fluorimetry, SYPRO orange. The format is binding. The conditions noted are these: 10 mM AMP; 100 mM Tris, 100 mM KCl, pH 7.6; absolute Tm, not a shift.

The target in test [3] is T3, acetone carboxylase (XaAC) (Xanthobacter versatilis, UniProt Q8RM03+Q8RM04, Q8RM03:E89D).
T3 construct: gene acxA; recombinant from E. coli, His-NTA then Q-sepharose; 360 kDa α2β2γ2 heterohexamer with Mn(II); ATP/AMP site in beta subunit, Mn(II) site in alpha subunit; with Acetone carboxylase gamma subunit
The test can be described thus: X-band EPR of active-site Mn(II). Format: binding. The conditions noted are these: 10 mM AMP, 1 mM MgCl2; 50 mM Tris, pH 7.6, 150 mM NaCl; 12 K.

Test [4] has as its target T1, acetone carboxylase (XaAC). Details: gene acxA. As to conditions: only tested together with AMP (10 mM AMP-acetate), 1 mM MgCl2, pH 7.6; Mn(II) site.
Test [5] deals with T4, Xanthobacter autotrophicus acetone carboxylase α subunit, αE89D variant (Xanthobacter autotrophicus, UniProt Q8RM03 1-776, αE89D).
T4 construct: acetone carboxylase alpha subunit, Xanthobacter autotrophicus, glutamate 89 substituted by aspartate; The PDB entries are of the wild-type parent; also called E89D XaAC; E89D AC; source: E. coli, purified as the complex (His-NTA, Q-sepharose)
T4 sequence: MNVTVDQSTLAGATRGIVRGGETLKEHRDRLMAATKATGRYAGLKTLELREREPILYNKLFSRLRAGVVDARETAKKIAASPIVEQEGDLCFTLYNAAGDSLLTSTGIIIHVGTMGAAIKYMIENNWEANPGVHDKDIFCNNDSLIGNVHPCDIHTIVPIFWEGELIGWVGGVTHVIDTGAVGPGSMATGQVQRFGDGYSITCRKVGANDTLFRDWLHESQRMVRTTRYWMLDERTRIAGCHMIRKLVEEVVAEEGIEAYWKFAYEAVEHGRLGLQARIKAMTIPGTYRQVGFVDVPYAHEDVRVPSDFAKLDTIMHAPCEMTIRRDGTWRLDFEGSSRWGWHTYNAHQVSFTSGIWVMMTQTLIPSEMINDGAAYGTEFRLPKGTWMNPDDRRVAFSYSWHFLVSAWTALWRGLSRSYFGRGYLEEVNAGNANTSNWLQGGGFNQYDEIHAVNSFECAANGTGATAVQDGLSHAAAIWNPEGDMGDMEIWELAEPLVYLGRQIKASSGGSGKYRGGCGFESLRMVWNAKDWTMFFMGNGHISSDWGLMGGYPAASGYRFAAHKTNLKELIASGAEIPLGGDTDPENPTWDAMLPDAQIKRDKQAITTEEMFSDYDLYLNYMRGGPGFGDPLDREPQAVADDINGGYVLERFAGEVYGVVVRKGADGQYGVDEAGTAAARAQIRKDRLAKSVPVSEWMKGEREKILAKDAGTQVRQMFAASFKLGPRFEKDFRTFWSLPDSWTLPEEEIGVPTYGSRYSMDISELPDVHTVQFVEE
The test is described as follows: SEC + native gel or EMSA; complexes co-purified from E. coli lysate (His-NTA, then Q-sepharose), stored in 50 mM Tris pH 7.6, 150 mM NaCl, 10% glycerol, then tested by size exclusion chromatography and native gel for integrity. The conditions noted are these: both partners purified. For orientation: A gel shift assay detects complexes by their altered migration in electrophoresis.

Test [6] has as its target T5, Xanthobacter autotrophicus acetone carboxylase α subunit, αE89A variant (Xanthobacter autotrophicus, UniProt Q8RM03 1-776, αE89A).
T5 construct: acetone carboxylase alpha subunit, Xanthobacter autotrophicus, glutamate 89 substituted by alanine; The PDB entries are of the wild-type parent; also called E89A XaAC; E89A AC; source: E. coli, purified as the complex (His-NTA, Q-sepharose)
T5 sequence: T4 sequence with D89A
The test is described as above. As to conditions: both partners purified.

The target of test [7] is T6, Xanthobacter autotrophicus acetone carboxylase α subunit (Xanthobacter autotrophicus, UniProt Q8RM03 1-776).
T6 construct: acetone carboxylase alpha subunit, Xanthobacter autotrophicus; holds the Mn(II) site (H150, D153, H175, E89); A His-NTA column was used, so one subunit probably carries a His tag; also called XaAC α; AC alpha subunit; source: E. coli, purified as the complex (His-NTA, Q-sepharose)
T6 sequence: T4 sequence with D89E
The description is as above. The conditions noted are these: both partners purified.

For `Nc1ncnc2c1ncn2[C@@H]1O[C@H](COP(=O)(O)O)[C@@H](O)[C@H]1O` [AMP], the values for the Tm in test [1] and in test [2] were 76.5 ± 0.5 °C and 76 ± 0.4 °C, respectively. Also, the “X-band EPR of active-site Mn(II)” value in test [3] is “αE89D and the WT AC respond similarly to AMP binding”.

Regarding `CC(=O)O` [acetate], in test [4], the “peptide-level and intact-protein HDX-MS” value is “when AMP and acetate were both present, seven of the eight peptides displayed opposite exchange patterns”.

B1: Xanthobacter autotrophicus acetone carboxylase β subunit (enzyme)
chain: MNVPVGHLRNVQVLGIDAGGTMTDTFFVDQDGDFVVGKAQSTPQNEALGLIASSEDGLANWGMSLHEALAQLQTGVYSGTAMLNRVVQRKGLKCGLIVNRGMEDFHRMGRAVQSHLGYAYEDRIHLNTHRYDPPLVPRHLTRGVVERTDMIGTQVIPLREDTARDAARDLIAADAEGIVISLLHSYKNPENERRVRDIVLEEVEKSGKKIPVFASADYYPVRKETHRTNTTILEGYAAEPSRQTLSKISNAFKERGTKFDFRVMATHGGTISWKAKELARTIVSGPIGGVIGAKYLGEVLGYKNIACSDIGGTSFDVALITQGEMTIKNDPDMARLVLSLPLVAMDSVGAGAGSFIRLDPYTRAIKLGPDSAGYRVGVCWKESGIETVTISDCHMVLGYLNPDNFLGGAVKLDRQRSVDAIKAQIADPLGLSVEDAAAGVIELLDSDLRDYLRSMISGKGYSPASFVCFSYGGAGPVHTYGYTEGLGFEDVIVPAWAAGFSAFGCAAADFEYRYDKSLDINMPTETPDTDKEKAAATLQAAWEELTKNVLEEFKLNGYSADQVTLQPGYRMQYRGQLNDLEIESPLAQAHTAADWDQLTDAFNATYGRVYAASARSPELGYSVTGAIMRGMVPIPKPKIPKEPEEGETPPESAKIGTRKFYRKKRWVDAQLYHMESLRPGNRVMGPAVIESDATTFVVPDGFETWLDGHRLFHLREV
notes: acetone carboxylase beta subunit, Xanthobacter autotrophicus; also called XaAC β; AC beta subunit; source: E. coli, purified as the complex (His-NTA, Q-sepharose)
On to B1, for which the binding result in test [5], in test [6] and in test [7] was “binds” throughout.

B2: Xanthobacter autotrophicus acetone carboxylase γ subunit (enzyme)
chain: MAYTRSKIVDLVDGKIDPDTLHQMLSTPKDPERFVTYVEILQERMPWDDKIILPLGPKLFIVQQKVSKKWTVRCECGHDFCDWKDNWKLSARVHVRDTPQKMEEIYPRLMAPTPSWQVIREYFCPECGTLHDVEAPTPWYPVIHDFSPDIEGFYQEWLGLPVPERADA
notes: acetone carboxylase gamma subunit, Xanthobacter autotrophicus; also called XaAC γ; AC gamma subunit; source: E. coli, purified as the complex (His-NTA, Q-sepharose)
Turning to B2, the binding result in test [5], in test [6] and in test [7] was “binds” throughout.
